{
  "source": "patent US20160075746A1",
  "about": "(published 2016)",
  "key": {"[1]": {"biological_target": "nerve growth factor (NGF)", "sequence (chain, as listed by the source)": "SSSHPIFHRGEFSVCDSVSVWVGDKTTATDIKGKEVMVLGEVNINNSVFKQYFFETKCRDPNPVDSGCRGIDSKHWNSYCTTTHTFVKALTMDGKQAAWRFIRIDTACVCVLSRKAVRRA", "test": "ELISA, glycopeptide on streptavidin plate, NGF 0-60 nM, anti-NGF-HRP detection"}, "[2]": {"biological_target": "nerve growth factor (NGF)", "test": "SPR, two-state model, comparison of KD values with glycopeptide 1"}, "[3]": {"biological_target": "nerve growth factor (NGF)", "test": "SPR, glycopeptide immobilised, NGF analyte, two-state model"}, "[4]": {"biological_target": "nerve growth factor (NGF)", "test": "SPR (Biacore T100), glycopeptide immobilised on streptavidin CM5 chip, NGF 11-185 nM as analyte, two-state model, ka1"}, "[5]": {"biological_target": "nerve growth factor (NGF)", "test": "SPR, glycopeptide immobilised, NGF analyte, two-state model, kd1"}, "[6]": {"biological_target": "nerve growth factor (NGF)", "test": "cell-based or functional assay"}},
  "note": "Primed or numbered codes have the meaning given here. [ ]: non-standard residue; d: D form. The star is where a group is joined. PE = proline (from (4R)-azidoproline) carrying a 1,2,3-triazole-linked chondroitin sulfate E (CS-E) disaccharide; Biotin = O=C1N[C@H]2[C@H](CS[C@H]2CCCCC(=O)*)N1; PEG12″ = not defined here; PEG12′ = PEG12: -",
  "data": [
    {"binder": "{Biotin-PEG12″}-P[PE]P[PE]P[PE]P[PE]P[PE]P[PE]P[PE]P[PE]P[PE]P[PE]P[PE]P[PE]-OMe (also called agent 4; (PPE)12)", "note": "[glycopeptide 4]", "values": [
      {"measurement": "fold increase in NGF binding affinity in comparison to 1", "setting": "[1]", "value": "~2.6", "unit": "fold"}
    ]},
    {"binder": "{Biotin-PEG12′}-PP[PE]PP[PE]PP[PE]PP[PE]PP[PE]PP[PE]PP[PE]PP[PE]PP[PE]PP[PE]PP[PE]PP[PE]-OMe (All 12 CS-E disaccharides lie along one face of the PPII helix; also called agent 5; compound 5)", "note": "[glycopeptide 5]", "values": [
      {"measurement": "fold stronger binding to NGF than agent 1 (by KD)", "setting": "[2]", "value": "~18", "unit": "fold"},
      {"measurement": "Kd", "setting": "[3]", "value": 137, "unit": "nM"},
      {"measurement": "kon", "setting": "[4]", "value": 46500, "unit": "M⁻¹ s⁻¹"},
      {"measurement": "fold increase in NGF binding as compared to 1", "setting": "[1]", "value": 4.6, "unit": "fold"},
      {"measurement": "koff", "setting": "[5]", "value": 0.0274, "unit": "s⁻¹"},
      {"measurement": "NGF-induced TrkA phosphorylation (Western blot, pTrkA/TrkA ratio) in PC12 cells", "setting": "[6]", "value": "~40", "unit": "%"}
    ]},
    {"binder": "{Biotin-PEG12′}-[PE][PE][PE][PE][PE][PE][PE][PE][PE][PE][PE][PE]-OMe (Immobilised through biotin on streptavidin in ELISA and SPR; also called agent 1; CS-E sulfated glycopeptide 1)", "note": "[glycopeptide 1]", "values": [
      {"measurement": "Kd", "setting": "[3]", "value": 2500, "unit": "nM"},
      {"measurement": "kon", "setting": "[4]", "value": 1950, "unit": "M⁻¹ s⁻¹"},
      {"measurement": "koff", "setting": "[5]", "value": 0.0322, "unit": "s⁻¹"}
    ]}
  ]
}
